{"source": "the nanobody polyreactivity screen of Harvey et al. (2022)"}
{"experiment": "yeast display, Sf9 membrane polyspecificity reagent, FACS + sequencing; frameworks hold sequencing errors", "method_in_brief": "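Polyreactivity labels are assigned by the sorting gate from which each nanobody was recovered. The gates were low and high (top ~1%), set on anti-HA fluorescence for expression and streptavidin fluorescence for reagent binding. Before sorting, galactose-induced (36–48 hours) yeast display cells were stained for 1 hour at 4 °C with 10% biotinylated, detergent-solubilized Sf9 membrane reagent.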"}
{"sequence": "QVQLVESGGGLVQAGGSLRLSCAASGRIFPYNAMGWYRQAPGKERELVAAIDWRDNTYYADSVKGRFSISRDNAKNTVYLQMNSLKPEDTAVYYCNVDYTDYFLNKYDYWGQGTQVTVSS", "polyreactivity (PSR sort gate)": "low polyreactivity"}
{"sequence": "QVQLVESGGGLVQAGGSLRLSCAASGRIFPYNVMGWYRQAPGKERELVAAISSGGTTDYADSVKGRFTISRDNAKNTVYLQMNSLKPEDTAVYYCAATYVYWTWGYDYWGQGTQVTVSS", "polyreactivity (PSR sort gate)": "low polyreactivity"}
{"sequence": "QVQLVESGGGLVQAGGSLRLSCAASGRIFPYYAMGWYRQAPGKERELVAAISRIGGRTYYADSVKGRFTISRDNAKNTVYLQMNSLKPEDTAVYYCAAGYGGTFNCGQGTQVTVSS", "polyreactivity (PSR sort gate)": "high polyreactivity"}
{"sequence": "QVQLVESGGGLVQAGGSLRLSCAASGRIFPYYTMGWYREAPGKERELVATITTGGSTNYADSVKGRFTISRDNAENTVYLQMNSLKPEDTAVYYCNKDGVVEVRFTGRQEYDYWGQGTQVTVSS", "polyreactivity (PSR sort gate)": "low polyreactivity"}
{"sequence": "QVQLVESGGGLVQAGGSLRLSCAASGRIFQANAMGWYRQAPGKERELVASISSGGSTNYADSVKGRFTISRDNAKNTVYLQMNSLKPEDTAVYYCAARHPSSAYWVGYYWYDYWGQGTQVTVSS", "polyreactivity (PSR sort gate)": "low polyreactivity"}
{"sequence": "QVQLVESGGGLVQAGGSLRLSCAASGRIFQDYARGWYRQAPGKERELVPSIRWSSTSTYYADSVKGRFTISRDNAKNTVYLQMNSLKPEDTAVYYCNARYPYYTRTRDGRMYYWGQGTQVTVSS", "polyreactivity (PSR sort gate)": "low polyreactivity"}
{"sequence": "QVQLVESGGGLVQAGGSLRLSCAASGRIFQFNVMGWYRQAPGKERELVAAISRGGGITDYADSVKGRFTISRDNAKNTVYLQMNSLKPEDTAVYYCAAVLPARGYYWGQGTQVTVSS", "polyreactivity (PSR sort gate)": "high polyreactivity"}
{"sequence": "QVQLVESGGGLVQAGGSLRLSCAASGRIFQGYAMGWYRQAPGKERELLAAITVRCGTTYYADSVKGRFTISRDNAKNTVYLQMNSLKPEDTAVYYCNAAKLIHGYQSVYPGSNSRYYYWGQGTQVTVSS", "polyreactivity (PSR sort gate)": "low polyreactivity"}
{"sequence": "QVQLVESGGGLVQAGGSLRLSCAASGRIFQGYAMGWYRQAPGKERELVAAIRTGGSTNYADSVKGRFTISRDNAKNTVYLQMNSLKPEDTAVYYCNAVGQLYFYFPRGDYWGQGTQVTVSS", "polyreactivity (PSR sort gate)": "low polyreactivity"}
{"sequence": "QVQLVESGGGLVQAGGSLRLSCAASGRIFQQYAMGWSRKAPGKERELVAAISRNGGSTYYADSVKGRFTISRDNAKNTVYLQMNRLKTEDTAVYYCNARRNAASTLRKDYGYWGQGTQVSVSS", "polyreactivity (PSR sort gate)": "high polyreactivity"}
{"sequence": "QVQLVESGGGLVQAGGSLRLSCAASGRIFQRYAMGWYRQAPGKERELVAVITKRGGNTYYADSVKGRFTISRDNAKNTVYLQMNSLKPEDTAVYYCANRSGRSTGDYWGQGTQVTVSS", "polyreactivity (PSR sort gate)": "high polyreactivity"}
{"sequence": "QVQLVESGGGLVQAGGSLRLSCAASGRIFQRYTMGWYRQAPGKEWEFVAAITYSGGSTHYADSVKGRFTISRDNAKNTVYLQMNSLKPEDTAVYYCATDYIRYRWYVFYGWLWRYDYWGQGTQVTVSS", "polyreactivity (PSR sort gate)": "low polyreactivity"}
{"sequence": "QVQLVESGGGLVQAGGSLRLSCAASGRIFQYYAMGWYRQAPGKERELVAAISSRGGSTTYADSVKGRFTISRDNAKNTVYLQMNSLKPEDTAVYYCARDWYYYPQYRQRYYYWGQGTQVTVSS", "polyreactivity (PSR sort gate)": "high polyreactivity"}
{"sequence": "QVQLVESGGGLVQAGGSLRLSCAASGRIFRAIAMGLYRQAPGKERELVAAISFSGGGTYYADSVKGRFTISRDNAKYTVYLQMNSLKPEDTAVYYCAADQFWGGEEYDYWGQGTQVTVSS", "polyreactivity (PSR sort gate)": "low polyreactivity"}
{"sequence": "QVQLVESGGGLVQAGGSLRLSCAASGRIFRAYAMGWYRQAPGKERELVASITGSGGSTYYADSVKGRFTISRDNAKNTVYLQMNSLKPEDTAVYYCAVASYRVWGVGTRFYYWGQGTQVTVSS", "polyreactivity (PSR sort gate)": "high polyreactivity"}
{"sequence": "QVQLVESGGGLVQAGGSLRLSCAASGRIFRAYARGWYRQAPGKERELVAAITRGGGTYYADSVKGRFTISRDNAKNSVYLQMNSLKPEDTAVYYCAAGRQRGPGYYFTFDYWGQGTQVTVSS", "polyreactivity (PSR sort gate)": "high polyreactivity"}
{"sequence": "QVQLVESGGGLVQAGGSLRLSCAASGRIFRAYVMGWYRQAPGKERELVATIDSGTSTYYADSVKGRFTISRDNAKNTVYLQMNSLKPEDTAVYYCAVPSHSRVPESFDYWGQGTQVTVSS", "polyreactivity (PSR sort gate)": "low polyreactivity"}
{"sequence": "QVQLVESGGGLVQAGGSLRLSCAASGRIFRDYAMGWYRQAPGKERELVAAISLSGGSTYYADSVKGRFTISRDIAKNTVYLQVNSLKPEDTAVYYCAAKYYYGGNGYWGQGTQVNVSS", "polyreactivity (PSR sort gate)": "low polyreactivity"}
{"sequence": "QVQLVESGGGLVQAGGSLRLSCAASGRIFRDYTMGWYRTAPGKERELVAAITSGGSTYYADSVKGRFTISRDTAKNTVYLQMNSLKPEDTAVYYCNADGYVPGVDYWGLGTQVTVSS", "polyreactivity (PSR sort gate)": "low polyreactivity"}
{"sequence": "QVQLVESGGGLVQAGGSLRLSCAASGRIFREYAMGWYRQAPGKERELVAAISSGASTYADSVKGRFTISRDNAKNTVYLQMNSLKPEDTAVYYCAKDIKLGPVGHSKYHRYDYWGQGTQVTVSS", "polyreactivity (PSR sort gate)": "low polyreactivity"}
{"sequence": "QVQLVESGGGLVQAGGSLRLSCAASGRIFRFNAMGWYRQAPGKERELVAAITGSGGTTFYADSVKGRFTISRDNAKNTVYLQMNSLKPEDTAVYYCARQRTVKKYYYWGQGTQVTVSS", "polyreactivity (PSR sort gate)": "high polyreactivity"}
{"sequence": "QVQLVESGGGLVQAGGSLRLSCAASGRIFRFYAMGCYIQAPGKERELVAVITARGGSTYYADSVKGRFTISRDNAKNNVYLQMNSLKPEDTAVYYCASTRVKGYTVVKSRRGEIDYWGQGTQVTVSS", "polyreactivity (PSR sort gate)": "high polyreactivity"}
{"sequence": "QVQLVESGGGLVQAGGSLRLSCAASGRIFRFYAMGWYRQAPGKERELVAAISSSAGGTYADSVKGRFTISRDYAKNTVYLQMNSRKPEDTAVYYCAARAYALYDWGQGTQVTVSS", "polyreactivity (PSR sort gate)": "high polyreactivity"}
{"sequence": "QVQLVESGGGLVQAGGSLRLSCAASGRIFRGNAMGWFRQAPGKERELVASISTSGVRTFYADSVKGRFTISRDNAKNTVYLQMNSLKPEDTAVYDCNKRDRYRMYGFNYWGQGTQVTVSS", "polyreactivity (PSR sort gate)": "high polyreactivity"}
{"sequence": "QVQLVESGGGLVQAGGSLRLSCAASGRIFRGNAMGWYRQAPGKERELVATITKRGGSTYYADSVKGRFTISRDNAKNTVYLQMNSLKPEDTAVYYCNTRTYGYLTQKYDYWGQGTQVTVSS", "polyreactivity (PSR sort gate)": "high polyreactivity"}
{"sequence": "QVQLVESGGGLVQAGGSLRLSCAASGRIFRGNVMGWYRQAPGTERELVAAISGSGGSTYYADSVKGRFTISRDNAKNTVYLQMNSLKPEDTAVYYCAAGTAKTPRRSVGYWGQGTQVTVSS", "polyreactivity (PSR sort gate)": "high polyreactivity"}
{"sequence": "QVQLVESGGGLVQAGGSLRLSCAASGRIFRGYAMGWYRQAPGKERELVAAISQSGSSTYYADSVKGRFTISRDNAKNTVYLQMNSLKPEDTAVYYCAVKYLKHFGYWGQGTQVTVSS", "polyreactivity (PSR sort gate)": "high polyreactivity"}
{"sequence": "QVQLVESGGGLVQAGGSLRLSCAASGRIFRGYAMGWYRQAPGKERELVAAISRGGNTDYADSVKGRFTISRDNAKNTVYLQMNSLKPEDTAVYYCAVGYVSYRKFYLYNSWGQGTQVTVSS", "polyreactivity (PSR sort gate)": "high polyreactivity"}
{"sequence": "QVQLVESGGGLVQAGGSLRLSCAASGRIFRGYAMGWYRQAPGKERELVADISSGASTNYADSVKGRFTISRDNAKKTVYFQMNSLKPEDTAVYYCAAQHSVLAYFEDDYWGQGTQVTVSS", "polyreactivity (PSR sort gate)": "low polyreactivity"}
{"sequence": "QVQLVESGGGLVQAGGSLRLSCAASGRIFRGYAMGWYRQAPGKERELVADISSGASTNYADSVKGRFTISRDNAKNTVYFQMNSLKPEDTAVYYCAAQHSVLAYFEYDYWGQGTQVTVSS", "polyreactivity (PSR sort gate)": "low polyreactivity"}
{"sequence": "QVQLVESGGGLVQAGGSLRLSCAASGRIFRGYAMGWYRQAPGTERELVAAITRGGSTKYADSVKGRFTISRDNAKNTVYLQMNSLKPEDTAVYYCAKDSYPYVPLYRSRSLYGYWGQGTQVTVSS", "polyreactivity (PSR sort gate)": "high polyreactivity"}
{"sequence": "QVQLVESGGGLVQAGGSLRLSCAASGRIFRHYGMGWYRQAPGKERELVARITRSGGSTYYADSVKGRFTISRDNAKNTVYLQMTSLKPEDTAVYYCAAFTYGESWYDYWGQGTQVTVSS", "polyreactivity (PSR sort gate)": "low polyreactivity"}
{"sequence": "QVQLVESGGGLVQAGGSLRLSCAASGRIFRIYAMGWYRQAPGKERELVARITYSGGSTYYADSVKGRFTISRDNAKNTVYLQMNSLKPEDTAVYFCAADWLGYQYGYWGQGTQVTVSS", "polyreactivity (PSR sort gate)": "low polyreactivity"}
{"sequence": "QVQLVESGGGLVQAGGSLRLSCAASGRIFRIYTMGWYRQAPGKERELVAAITKSGGSTSYADSVKGRFTISRDNAKNTVYLQMNILKPEDTAVYYCNAKGWTRPPGYDYWGQGTQVTVSS", "polyreactivity (PSR sort gate)": "high polyreactivity"}
{"sequence": "QVQLVESGGGLVQAGGSLRLSCAASGRIFRIYTMVWYRQAPGKERELVAVINSSGGRTYYADSVKGRFTISRDNAQNTVYLQMNSLKPEDTAVYYCNAVFGGGTMDYWGQGTQVTVSS", "polyreactivity (PSR sort gate)": "high polyreactivity"}
{"sequence": "QVQLVESGGGLVQAGGSLRLSCAASGRIFRKYAMGWSRQAPGKEREFVAAISSSGGITYYADSVKGRFTISRDNAKNTVYLQMNSLKPEDTAVYYCADLYPQHRYDYWGQGTQVTVSS", "polyreactivity (PSR sort gate)": "high polyreactivity"}
{"sequence": "QVQLVESGGGLVQAGGSLRLSCAASGRIFRKYAMGWYIQAPGKEREFVASIRSRGDSTYYADSVKGRFTISRDNAKNTVYLQMNSMKPEDTAVYYCAAVSGSGYDYWGQGTQVTVSS", "polyreactivity (PSR sort gate)": "high polyreactivity"}
{"sequence": "QVQLVESGGGLVQAGGSLRLSCAASGRIFRLYAMGWSRQAPGKERELVAAISSSGGDTYYADSVKGRFTISRDNAKNTVYLQMNSLKPEDTAVYYCNARKRYANVHYNYWGQGTQVTVSS", "polyreactivity (PSR sort gate)": "high polyreactivity"}
{"sequence": "QVQLVESGGGLVQAGGSLRLSCAASGRIFRLYTMGWYRPAPGKERELVAAISGSGGRTYYADSVKGRFTISRDNAKNTVYLQMNSLKPEDTAVYYCAKVGYKSPYLYSQHYTGFGYWGQGTQVTVSS", "polyreactivity (PSR sort gate)": "high polyreactivity"}
{"sequence": "QVQLVESGGGLVQAGGSLRLSCAASGRIFRPNAMGWYRQAPGKERELVAAITSNGGRTYYADSVKGRFTISRDNAKNTVYLQMNSLKPEDTAVYYCNAAPFRSGYGYWGQGTQVTVSS", "polyreactivity (PSR sort gate)": "high polyreactivity"}
{"sequence": "QVQLVESGGGLVQAGGSLRLSCAASGRIFRPYAMGWYRQAPGKERELVAAISVSGVITYYADSVKGRFTISRDNAKNTVYLQMNSLKPEDTAVYYCARRSSTRYFYGWYDYWGQGTQVTVSS", "polyreactivity (PSR sort gate)": "low polyreactivity"}
